Source: patent US20190085055A1
Each block holds one substance with its values, some of them ahead of it.

What was measured:
[1] = molecular target: D3H44 light chain F116A; test: LCCA (SPR), competitor L2 F118W_V133S
[2] = molecular target: D3H44 light chain F116S; test: LCCA (SPR), competitor L2 F118W_V133S
[3] = molecular target: D3H44 light chain, wild type; test: LCCA (SPR), competitor L2 F116A
[4] = molecular target: D3H44 light chain F118W_V133S; test: LCCA (SPR), competitor L1 F116A
[5] = molecular target: D3H44 light chain F116A; test: LCCA (SPR), competitor L1 WT
[6] = molecular target: D3H44 light chain F118W_V133S; test: LCCA (SPR), competitor L1 F116S
[7] = molecular target: D3H44 light chain, wild type; test: LCCA (SPR), competitor L2 F98L
[8] = molecular target: D3H44 light chain F98L; test: LCCA (SPR), competitor L1 WT
[9] = molecular target: D3H44 light chain S176L; test: LCCA (SPR), competitor L2 WT
Chain of D3H44 light chain S176L (light, as listed by the source): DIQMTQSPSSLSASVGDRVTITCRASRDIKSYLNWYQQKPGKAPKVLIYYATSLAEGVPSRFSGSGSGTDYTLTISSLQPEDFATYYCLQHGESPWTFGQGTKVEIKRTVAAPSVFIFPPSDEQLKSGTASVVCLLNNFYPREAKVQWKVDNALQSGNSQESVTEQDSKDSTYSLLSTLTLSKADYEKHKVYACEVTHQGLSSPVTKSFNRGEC

[10] = molecular target: D3H44 light chain, wild type; test: LCCA (SPR), competitor L1 S176L
[11] = molecular target: D3H44 light chain Y87G; test: LCCA (SPR), competitor L2 P44W
Chain of D3H44 light chain Y87G (light, as listed by the source limits assumed): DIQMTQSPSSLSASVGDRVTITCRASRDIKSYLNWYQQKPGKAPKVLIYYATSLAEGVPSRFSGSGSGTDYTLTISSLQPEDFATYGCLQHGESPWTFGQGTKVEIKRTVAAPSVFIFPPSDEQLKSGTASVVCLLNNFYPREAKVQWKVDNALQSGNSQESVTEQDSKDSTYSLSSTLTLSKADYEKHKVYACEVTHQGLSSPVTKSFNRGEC

[12] = molecular target: D3H44 light chain P44W; test: LCCA (SPR), competitor L1 Y87G
[13] = molecular target: D3H44 light chain Q38N_T85K; test: LCCA (SPR), competitor L1 Q38N_T85E
Chain of D3H44 light chain Q38N_T85K (light, as listed by the source limits assumed): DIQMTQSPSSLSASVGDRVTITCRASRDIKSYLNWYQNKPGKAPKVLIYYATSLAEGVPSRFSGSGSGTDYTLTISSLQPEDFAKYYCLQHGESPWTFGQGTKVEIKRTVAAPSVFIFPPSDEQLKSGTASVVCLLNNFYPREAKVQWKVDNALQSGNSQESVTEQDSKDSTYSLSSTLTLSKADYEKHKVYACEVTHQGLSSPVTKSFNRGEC

[14] = molecular target: D3H44 light chain Q38N_T85E; test: LCCA (SPR), competitor L2 Q38N_T85K
Chain of D3H44 light chain Q38N_T85E (light, as listed by the source limits assumed): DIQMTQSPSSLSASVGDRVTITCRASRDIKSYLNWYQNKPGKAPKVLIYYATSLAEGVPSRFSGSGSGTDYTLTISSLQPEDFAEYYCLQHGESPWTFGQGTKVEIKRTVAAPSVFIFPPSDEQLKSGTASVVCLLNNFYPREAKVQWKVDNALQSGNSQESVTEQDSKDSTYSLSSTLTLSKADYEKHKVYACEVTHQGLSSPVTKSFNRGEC

[15] = molecular target: D3H44 light chain Q38D; test: LCCA (SPR), competitor L1 Q38R
Chain of D3H44 light chain Q38D (light, as listed by the source limits assumed): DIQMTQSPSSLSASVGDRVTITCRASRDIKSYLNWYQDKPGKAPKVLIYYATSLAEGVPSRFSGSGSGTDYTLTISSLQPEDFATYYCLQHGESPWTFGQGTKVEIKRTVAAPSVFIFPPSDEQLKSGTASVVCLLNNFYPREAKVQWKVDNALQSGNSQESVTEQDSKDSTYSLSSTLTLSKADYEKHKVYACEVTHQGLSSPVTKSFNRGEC

[16] = molecular target: D3H44 light chain Q38R; test: LCCA (SPR), competitor L2 Q38D
Chain of D3H44 light chain Q38R (light, as listed by the source): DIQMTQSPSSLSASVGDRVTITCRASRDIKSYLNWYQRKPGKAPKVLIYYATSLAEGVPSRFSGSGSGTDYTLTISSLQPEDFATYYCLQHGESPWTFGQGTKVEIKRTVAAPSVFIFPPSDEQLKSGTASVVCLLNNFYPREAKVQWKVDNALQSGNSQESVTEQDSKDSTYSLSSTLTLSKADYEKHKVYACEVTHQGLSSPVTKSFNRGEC

[17] = molecular target: D3H44 light chain F98A; test: LCCA (SPR), competitor L1 Q38R
[18] = molecular target: D3H44 light chain P44W; test: LCCA (SPR), competitor L2 F98A
[19] = molecular target: D3H44 light chain P44W; test: LCCA (SPR), competitor L2 F98W
[20] = molecular target: D3H44 light chain F98L; test: LCCA (SPR), competitor L2 P44W
[21] = molecular target: D3H44 light chain P44W; test: LCCA (SPR), competitor L1 F98L
[22] = molecular target: D3H44 light chain F98A; test: LCCA (SPR), competitor L1 P44W
[23] = molecular target: D3H44 light chain F98W; test: LCCA (SPR), competitor L1 P44W
[24] = molecular target: D3H44 light chain P44W; test: LCCA (SPR), competitor L2 F98L
[25] = molecular target: D3H44 light chain F98L; test: LCCA (SPR), competitor L1 P44W
[26] = molecular target: D3H44 light chain L89R_F98T; test: LCCA (SPR), competitor L2 WT
Chain of D3H44 light chain L89R_F98T (light, as listed by the source limits assumed): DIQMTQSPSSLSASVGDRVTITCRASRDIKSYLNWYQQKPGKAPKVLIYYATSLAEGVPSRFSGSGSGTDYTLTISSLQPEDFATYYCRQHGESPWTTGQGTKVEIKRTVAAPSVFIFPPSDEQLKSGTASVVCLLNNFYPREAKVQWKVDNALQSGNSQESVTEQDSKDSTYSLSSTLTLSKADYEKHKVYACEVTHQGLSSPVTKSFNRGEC

[27] = molecular target: D3H44 light chain, wild type; test: LCCA (SPR), competitor L1 L89R_F98T
[28] = molecular target: D3H44 light chain L89R_F98W; test: LCCA (SPR), competitor L2 F98Y
Chain of D3H44 light chain L89R_F98W (light, as listed by the source): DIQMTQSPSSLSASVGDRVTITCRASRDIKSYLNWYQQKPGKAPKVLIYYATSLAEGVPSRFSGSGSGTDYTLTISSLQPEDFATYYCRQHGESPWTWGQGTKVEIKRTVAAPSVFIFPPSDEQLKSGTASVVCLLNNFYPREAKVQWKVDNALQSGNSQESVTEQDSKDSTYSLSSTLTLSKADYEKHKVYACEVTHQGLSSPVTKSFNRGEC

[29] = molecular target: D3H44 light chain F98Y; test: LCCA (SPR), competitor L1 L89R_F98W
Chain of D3H44 light chain F98Y (light, as listed by the source limits assumed): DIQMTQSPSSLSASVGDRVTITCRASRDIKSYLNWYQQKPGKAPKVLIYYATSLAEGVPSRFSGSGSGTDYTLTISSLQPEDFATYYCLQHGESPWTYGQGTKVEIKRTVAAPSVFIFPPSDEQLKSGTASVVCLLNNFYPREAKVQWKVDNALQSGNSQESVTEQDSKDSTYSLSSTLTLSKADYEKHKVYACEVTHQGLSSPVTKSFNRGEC

[30] = molecular target: D3H44 light chain F98L; test: LCCA (SPR), competitor L2 F98W
[31] = molecular target: D3H44 light chain F98W; test: LCCA (SPR), competitor L1 F98L

Chain of D3H44 light chain, wild type (light, as listed by the source): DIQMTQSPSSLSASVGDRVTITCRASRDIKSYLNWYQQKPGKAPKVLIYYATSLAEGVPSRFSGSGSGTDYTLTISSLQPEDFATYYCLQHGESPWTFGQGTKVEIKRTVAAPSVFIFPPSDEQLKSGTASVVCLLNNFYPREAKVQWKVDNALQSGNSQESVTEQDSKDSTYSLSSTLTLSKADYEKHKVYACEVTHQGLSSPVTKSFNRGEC

H1 L1 of H1 L1:H1 L2 (screen) [1]: 68.7
H1 L1 of H1 L1:H1 L2 (verification) [1]: 83.8
H1 L1 of H1 L1:H1 L2 (screen) [2]: 84.8
H1 L1 of H1 L1:H1 L2 (verification) [2]: 55.4
H2 L1 of H2 L2:H2 L1 (screen) [3]: 21.1
H2 L1 of H2 L2:H2 L1 (verification) [3]: 22.3
H1 L2 of H1 L1:H1 L2 (screen) [4]: 33.4
H1 L2 of H1 L1:H1 L2 (verification) [4]: 0.722
H2 L2 of H2 L2:H2 L1 (screen) [5]: 66.9
H2 L2 of H2 L2:H2 L1 (verification) [5]: 43
H1 L2 of H1 L1:H1 L2 (screen) [6]: 15.7
H1 L2 of H1 L1:H1 L2 (verification) [6]: 20.2
Substance: D3H44 heavy chain (Fab format) A139W_V190S

H2 L1 of H2 L2:H2 L1 (screen) [7]: 29.7
H2 L1 of H2 L2:H2 L1 (verification) [7]: 44.9
H2 L2 of H2 L2:H2 L1 (screen) [8]: 56.8
H2 L2 of H2 L2:H2 L1 (verification) [8]: 38.9
Substance: D3H44 heavy chain (Fab format) F100W

H2 L1 of H2 L2:H2 L1 (screen) [9]: 5.94
H2 L2 of H2 L2:H2 L1 (screen) [10]: 103
Substance: D3H44 heavy chain (Fab format) F174V_S188L

H1 L1 of H1 L1:H1 L2 (screen) [11]: 54.5
H1 L1 of H1 L1:H1 L2 (verification) [11]: 58.1
H1 L2 of H1 L1:H1 L2 (screen) [12]: 23.9
H1 L2 of H1 L1:H1 L2 (verification) [12]: 31
Substance: D3H44 heavy chain (Fab format) L45W

H2 L2 of H2 L2:H2 L1 (screen) [13]: 71.7
H2 L1 of H2 L2:H2 L1 (screen) [14]: 27.4
H1 L2 of H1 L1:H1 L2 (screen) [15]: 34.5
H1 L2 of H1 L1:H1 L2 (verification) [15]: 31.1
H1 L1 of H1 L1:H1 L2 (screen) [16]: 66.9
H1 L1 of H1 L1:H1 L2 (verification) [16]: 61.8
Substance: D3H44 heavy chain (Fab format) Q39D

H1 L2 of H1 L1:H1 L2 (screen) [17]: 29.7
H1 L2 of H1 L1:H1 L2 (verification) [17]: 7.2
Substance: D3H44 heavy chain (Fab format) Q39E

H1 L2 of H1 L1:H1 L2 (screen) [13]: 30.1
H1 L2 of H1 L1:H1 L2 (verification) [13]: 21.7
H1 L1 of H1 L1:H1 L2 (screen) [14]: 54.8
H1 L1 of H1 L1:H1 L2 (verification) [14]: 66.5
Substance: D3H44 heavy chain (Fab format) Q39K

H2 L1 of H2 L2:H2 L1 (screen) [9]: 9.32
H2 L2 of H2 L2:H2 L1 (screen) [10]: 92.5
Substance: D3H44 heavy chain (Fab format) S188L

H1 L1 of H1 L1:H1 L2 (screen) [18]: 67.5
H1 L1 of H1 L1:H1 L2 (verification) [18]: 47.1
H1 L1 of H1 L1:H1 L2 (screen) [19]: 53.6
H2 L1 of H2 L2:H2 L1 (screen) [11]: 18.9
H2 L1 of H2 L2:H2 L1 (screen) [20]: 6.38
H2 L2 of H2 L2:H2 L1 (screen) [21]: 66.5
H2 L2 of H2 L2:H2 L1 (screen) [12]: 53.1
H1 L2 of H1 L1:H1 L2 (screen) [22]: 8.79
H1 L2 of H1 L1:H1 L2 (verification) [22]: 12.3
H1 L2 of H1 L1:H1 L2 (screen) [23]: 19.6
Substance: D3H44 heavy chain (Fab format) V37A_W103H

H2 L1 of H2 L2:H2 L1 (screen) [24]: 22.8
H2 L1 of H2 L2:H2 L1 (verification) [24]: 23
H1 L1 of H1 L1:H1 L2 (screen) [18]: 58.9
H2 L1 of H2 L2:H2 L1 (screen) [19]: 18.6
H2 L1 of H2 L2:H2 L1 (verification) [19]: 44.7
H1 L2 of H1 L1:H1 L2 (screen) [22]: 25.3
H2 L2 of H2 L2:H2 L1 (screen) [25]: 54.8
H2 L2 of H2 L2:H2 L1 (verification) [25]: 52
H2 L2 of H2 L2:H2 L1 (screen) [23]: 53
H2 L2 of H2 L2:H2 L1 (verification) [23]: 23.3
Substance: D3H44 heavy chain (Fab format) V37A_W103V

H1 L1 of H1 L1:H1 L2 (screen) [26]: 54.1
H1 L1 of H1 L1:H1 L2 (verification) [26]: 90.9
H1 L2 of H1 L1:H1 L2 (screen) [27]: 25
H1 L2 of H1 L1:H1 L2 (verification) [27]: 16.5
Substance: D3H44 heavy chain (Fab format) V37E

H2 L1 of H2 L2:H2 L1 (screen) [24]: 26.9
H2 L1 of H2 L2:H2 L1 (verification) [24]: 47.9
H2 L2 of H2 L2:H2 L1 (screen) [25]: 67.3
H2 L2 of H2 L2:H2 L1 (verification) [25]: 30.5
Substance: D3H44 heavy chain (Fab format) V37I_F100W

H2 L1 of H2 L2:H2 L1 (screen) [28]: 0.5
H2 L1 of H2 L2:H2 L1 (verification) [28]: 11.7
H2 L2 of H2 L2:H2 L1 (screen) [29]: 71.6
H2 L2 of H2 L2:H2 L1 (verification) [29]: 65.6
Substance: D3H44 heavy chain (Fab format) V37S_A97K

H1 L1 of H1 L1:H1 L2 (screen) [30]: 64.2
H1 L1 of H1 L1:H1 L2 (verification) [30]: 38.2
H1 L2 of H1 L1:H1 L2 (screen) [31]: 14.8
H1 L2 of H1 L1:H1 L2 (verification) [31]: 27.7
Substance: D3H44 heavy chain (Fab format) V37W_W103F

H1 L1 of H1 L1:H1 L2 (screen) [30]: 57.2
H1 L1 of H1 L1:H1 L2 (verification) [30]: 62.3
H1 L1 of H1 L1:H1 L2 (screen) [20]: 48.3
H1 L1 of H1 L1:H1 L2 (verification) [20]: 56
H1 L2 of H1 L1:H1 L2 (screen) [31]: 30
H1 L2 of H1 L1:H1 L2 (verification) [31]: 30.5
H1 L2 of H1 L1:H1 L2 (screen) [21]: 29.2
H1 L2 of H1 L1:H1 L2 (verification) [21]: 21.2
Substance: D3H44 heavy chain (Fab format) V37W_W103H

H1 L1 of H1 L1:H1 L2 (screen) [1]: 55.1
H1 L1 of H1 L1:H1 L2 (screen) [2]: 78.2
H1 L1 of H1 L1:H1 L2 (verification) [2]: 25.9
H1 L2 of H1 L1:H1 L2 (screen) [4]: 35.3
H1 L2 of H1 L1:H1 L2 (screen) [6]: 24.1
H1 L2 of H1 L1:H1 L2 (verification) [6]: 50.8
Substance: D3H44 heavy chain (Fab format) V190G
